Assay results from patent US20140287419A1, “Compositions Having Dicamba Decarboxylase Activity and Methods of Use” (priority 2013, published 2014).

Test: 14C assay with IPTG-induced recombinant E. coli cells (14CO2 capture from [14C]-carboxyl-labeled dicamba)
Details: for Dicamba Decarboxylase Activity: IPTG-induced recombinant E. coli cells, [14C]-carboxyl-labeled dicamba, 14CO2 capture; for Enzymatic Detection level: dicamba decarboxylation activity of the protein of the given SEQ ID NO

Molecule	Dicamba Decarboxylase Activity	Enzymatic Detection level
97 (protein, listed as Sphingobium sp.) MAMMIIDCHGHYTVLPKAHDEWREQQKAAFKAGQPAPPYPEISDDEIRETIEANQLRLIKERGADMTIFSPRASAMAPHVGDQSVAVPWAQACNNLIARVVDLFPETFAGVCMLPQSPEADMTSSIAELERCVNELGFIGCNLNPDPGGGHFKHPPLTDRFWYPFYEKMVELDVPAMIHVSGSCNPAMHATGAYYLAADTIAFMQLLQGNLFADFPTLRFIIPHGGGAVPYHWGRFRGLADMLKQPSLDTLLMNNVFFDTCVYHQPGINLLADVIDNKNILFGSEMVGAVRGIDPTTGHYFDDTKRYIDALDISDQERHAIFEGNTRRVFPRLDAKLKARGL	No	No
8 (protein, listed as Metarhizium anisopliae) MARGKINFEEAFELPTLADSSREQAALYIAPKDLDRYIYHIKHPLGERLQLANSHGIGYTIYSLTVPGIQGIPDQSKAEQHATTVNDWIANEIKDHRDRLGAFAALSMHDAAQAAAELERCVRQHGFHGALLNNYQHAGPDGETYLFYDQPAYDVFWQKCVELDVPVYLHPAAPAGNYYKQMYAQRKYLVGPPLSFANDVSLHLLGLVTNGVFDRFPKLKVVVGHLGEHIPFDFWRISHWLEDVERPLAAGRGDVMSKKDLLYYFKNNIWVTTSGHFSTPTVRYVADYLGPERIMFSVDTPYETIENGVGWFDGEEDALTRALGGEDGYKKVARENAKKLFKLTKYHDCDA	Low	Low
101 (protein, listed as Aquifex aeolicus) MAQKIALCITGASGVIYGIKLLQVLEELDFSVDLVISRNAKVVLKEEHSLTFEEVLKGLKNVRIHEENDFTSPLASGSRLVHYRGVYVVPCSTNTLSCIANGINKNLIHRVGEVALKERVPLVLLVREAPYNEIHLENMLKITRMGGVVVPASPAFYHKPQSIDDMINFVVGKLLDVLRIEHNLYKRWRG	No	No
93 (protein, listed as Mucilaginibacter paludis) MAKYGKHITINKNMRIVTLEEHISFPEMADQIPKAALGSFGRSEAMQRIAPKLADITGERLKSMDANGISMQVLSVDSSGVNLLSPQQGPAFATQYNDLIANRIAGFEKRFTAFAHLPMTAPFAAADELERAVKEHHFCGAMIRGLTGDQFLDHPQFAPIFERAQKLDVPIYLHPGLPPKGVADIYYSGLPNYSGMAEALACYGWGWHSETALHVLRLLFSGIFDQYPKLKLVIGHMGEMLPMMMARSEKAFKPGNGGANVRTLTDTFRSQVYLTTSGFFTQPPLKIALDTFGIDHVMFSVDYPFSTNEMGIEFLNEIDLPDEEVARIAHGNADKLLNLKA	Low	Low
98 (protein, Xanthomonas campestris pv.) MAIIDCHGHYTTAPAAHDAFRKAQIAHHDDPQQPAPQYPHISDDALRESIEQHQLRLLRERGADMTIFSPRASTMAHHIGNEAVSQVWTQRCNDLIARVVQLYPHTFIGVCQLPQSPGVPISHSIAELERCVNELGFVGCNLNPDPSGGHWNGVPLTDRAWYPFFEKMVELDVPAMVHVSGSCNANFHATGAHYLNADTTAFMQFLEGDLFRDFPSLRFIIPHGGGAVPYHWGRFRGLADMLGKPPLATHVMRNVFFDTCVYHQPGIDLLFEVIDIDNILFGSEMVGAVRGIDPQTGHYFDDTKRYIDALTISDADKRKVFEGNARRVYPRLDAQLRARGL	No	No
94 (protein, listed as Bacillus thuringiensis) MANRGDSNMKSLVGVIMGSTSDWETMKYACDILDELNIPYEKKVVSAHRTPDYMFEYAETARERGLKVIIAGAGGAAHLPGMVAAKTNLPVIGVPVQSKALNGLDSLLSIVQMPGGVPVATVAIGKAGSTNAGLLAAQILGSFHDDIHDALELRREAIEKDVREGSELV	No	No
103 (protein, Plasmodium yoelii yoelii) MAMEIPTEEIKFLKKEDVQNIDLNGMSKKERYEIWRRIPKVELHCHLDLTFSAEFFLKWARKYNLQPNMSDDEILDHYLFTKEGKSLAEFIRKAISVSDLYRDYDFIEDLAKWAVIEKYKEGVVLMEFRYSPTFVSSSYGLDVELIHKAFIKGIKNATELLNNKIHVALICISDTGHAAASIKHSGDFAIKHKHDFVGFDHGGREIDLKDHKDVYHSVRDHGLHLTVHAGEDATLPNLNTLYTAINILNVERIGHGIRVSESDELIELVKKKDILLEVCPISNLLLNNVKSMDTHPIRKLYDAGVKVSVNSDDPGMFLSNINDNYEKLYIHLNFTLEEFMIMNNWAFEKSFVSDDVKSELKALYF	No	No
92 (protein, listed as Chitinophaga pinensis) MARIVTLEEHVSFPEMTALLPEEILKNRKQSGAALQMQEKLADITGERLTSMKAAGISMQVLSVENTDVYLLPDSLAPAFAAKYNDLLADKISSHSDAFAAFAMLPMTVPEAAADELERAVKTHGFCGAMIKGLINGVFLDAPKFAPVFACAEKLGVPLYIHPGIPPKEVIDAYYSNVGDTKGPNEAIACYGWGWHSETAIHILRLLAAGIFDKYPQLNIIIGHMGEMLPMMWERSNRVFQPGNNGKNQRTLIETFRKQLYITTSGIFTQPPLQIAIDTIGIDNILFSIDYPFSSNQMGIDFLTKAALPAEQLAKMAHGNADRILKF	Yes	High
96 (protein, Aspergillus nidulans) MAPLIVDVHTHVYPPAYMQMLRSRKTVPYVHDPSNNRDPRLIILSSDDDASIPLDQRGRPVDSSYWDINVKLSFMRQHGINCSVISLANPWLDFVEPAEAQMWAERINDDLEKTCATVNKAADPGNTLTLDQKETLFAFGALPLSAPSSESVVAEIKRLKTLEHLRGVIMGTSGLGKGLDDARLDPVWEALQETDMLMFLHPHYGLPEEAYGGPETTGRYGHVLPLALGFPLETTIAVTRMLLSGVFDRFPRLKILLAHSGGTLPFLAGRIESCILHERKFISGGGDVQGPQRSVWDVLKTNIYLDAVVYGKPGLEAAMTASGSDRLLFGTDHPFFPPLDSKDNSWPSVTTNYQAIHATFDTNSKTVADVLGGNAARILNLK	No	No
99 (protein, listed as Ralstonia solanacearum) MAIIDCHGHFTTAPTALEDWRKRQIANLATPALGPSPDDLKISDDALTEAIRANQLRLMQARGSDLTIFSPRASFMAHHIGDFHTSATWAAICNALCHRVSQLFPDHFVGAAMLPQSPGVDIRTCIPELARCIVDYGFVGVNLNPDPSGGHWTSPPLSDPYWFPLYEKLVEYDVPAMIHVSTSCNACFHTTGAHYLNADTTAFMQVLTSDLFRRFPTLKFVIPHGGGAVPYHWGRFRGLAQELKTPPLQEHLLHNVFFDTCVYHQPGIDLLTRVIPVDNILFASEMIGAVRGIDPETGHPFDDTRRYIDQAHTLSAEDRHKIYEGNARRVYPRLDARLKARGR	No	No
102 (protein, listed as Lactobacillus plantarum) MATKTFKTLDDFLGTHFIYTYDNGWEYEWYAKNDHTVDYRIHGGMVAGRWVTDQKADIVMLTEGIYKISWTEPTGTDVALDFMPNEKKLHGTIFFPKWVEEHPEITVTYQNEHIDLMEQSREKYATYPKLVVPEFANITYMGDAGQNNEDVISEAPYKEMPNDIRNGKYFDQNYHRLNK	No	No
